The chains are these.
B1: ActRIIB-Fc:ALK3-Fc heterodimer (Fc fusion)
chain 1: GRGEAETRECIYYNANWELERTNQSGLERCEGEQDKRLHCYASWRNSSGTIELVKKGCWLDDFNCYDRQECVATEENPQVYFCCCEGNFCNERFTHLPEAGGPEVTYEPPPTAPTGGGTHTCPPCPAPELLGGPSVFLFPPKPKDTLMISRTPEVTCVVVDVSHEDPEVKFNWYVDGVEVHNAKTKPREEQYNSTYRVVSVLTVLHQDWLNGKEYKCKVSNKALPAPIEKTISKAKGQPREPQVYTLPPSRKEMTKNQVSLTCLVKGFYPSDIAVEWESNGQPENNYKTTPPVLKSDGSFFLYSKLTVDKSRWQQGNVFSCSVMHEALHNHYTQKSLSLSPGK
chain 2: GAQNLDSMLHGTGMKSDSDQKKSENGVTLAPEDTLPFLKCYCSGHCPDDAINNTCITNGHCFAIIEEDDQGETTLASGCMKYEGSDFQCKDSPKAQLRRTIECCRTNLCNQYLQPTLPPVVIGPFFDGSIRTGGGTHTCPPCPAPELLGGPSVFLFPPKPKDTLMISRTPEVTCVVVDVSHEDPEVKFNWYVDGVEVHNAKTKPREEQYNSTYRVVSVLTVLHQDWLNGKEYKCKVSNKALPAPIEKTISKAKGQPREPQVYTLPPSREEMTKNQVSLTCLVKGFYPSDIAVEWESNGQPENNYDTTPPVLDSDGSFFLYSDLTVDKSRWQQGNVFSCSVMHEALHNHYTQKSLSLSPG
notes: C-terminal Lys optional; also called ActRIIB-Fc:ALK3-Fc heterodimeric complex
B2: BMP2 (ligand, UniProt P12643 283-396, looked up)
chain: QAKHKQRKRLKSSCKRHPLYVDFSDVGWNDWIVAPPGYHAFYCHGECPFPLADHLNSTNHAIVQTLVNSVNSKIPKACCVPTELSAISMLYLDENEKVVLKNYQDMVVEGCGCR
B3: GDF6 (ligand, UniProt Q6KF10 336-455, looked up)
chain: TAFASRHGKRHGKKSRLRCSKKPLHVNFKELGWDDWIIAPLEYEAYHCEGVCDFPLRSHLEPTNHAIIQTLMNSMDPGSTPPSCCVPTKLTPISILYIDAGNNVVYKQYEDMVVESCGCR
notes: also called BMP13

One assay concerns the target T1, activin B (UniProt P09529 293-407).
T1 sequence (looked up): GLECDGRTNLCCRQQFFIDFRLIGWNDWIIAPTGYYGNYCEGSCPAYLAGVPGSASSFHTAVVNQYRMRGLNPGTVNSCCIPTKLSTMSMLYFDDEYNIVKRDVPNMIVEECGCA
In words: Biacore SPR. On the procedure:
(§1) Ligands were injected and allowed to flow over the captured receptor protein.
For orientation: In SPR one partner is held on a chip, and binding of the other changes the refractive index at the surface.

For a further assay, the target named is T2, GDF11 (UniProt O95390 299-407).
T2 construct: also called BMP11
T2 sequence (looked up): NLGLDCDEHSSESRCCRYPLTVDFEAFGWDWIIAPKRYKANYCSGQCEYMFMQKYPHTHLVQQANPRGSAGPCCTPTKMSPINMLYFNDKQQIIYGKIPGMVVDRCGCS
In words: Biacore SPR. On the procedure:
as §1

The next assay concerns the target T3, BMP10 (UniProt O95393 317-424).
T3 sequence (looked up): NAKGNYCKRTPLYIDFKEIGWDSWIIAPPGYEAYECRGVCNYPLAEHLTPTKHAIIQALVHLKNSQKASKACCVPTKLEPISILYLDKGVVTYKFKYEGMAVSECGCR
In words: Biacore SPR. The method, then:
as §1

The next assay addresses T4, GDF7 (UniProt Q7Z4P5 322-450, limits assumed).
T4 construct: also called BMP12
T4 sequence (looked up): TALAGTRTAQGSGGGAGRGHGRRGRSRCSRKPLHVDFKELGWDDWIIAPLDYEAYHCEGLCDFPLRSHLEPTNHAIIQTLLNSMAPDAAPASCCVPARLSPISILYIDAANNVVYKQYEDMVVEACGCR
In words: Biacore SPR. The method, then: as §1

A further assay addresses T5, GDF5 (UniProt P43026 382-501).
T5 construct: also called BMP14
T5 sequence (looked up): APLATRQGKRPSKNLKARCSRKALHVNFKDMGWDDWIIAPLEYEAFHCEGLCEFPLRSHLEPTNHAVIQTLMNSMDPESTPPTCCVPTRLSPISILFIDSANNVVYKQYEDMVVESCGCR
In words: Biacore SPR. On the procedure:
as §1

A further assay has as its target T6, activin A (UniProt P08476 311-426).
T6 sequence (looked up): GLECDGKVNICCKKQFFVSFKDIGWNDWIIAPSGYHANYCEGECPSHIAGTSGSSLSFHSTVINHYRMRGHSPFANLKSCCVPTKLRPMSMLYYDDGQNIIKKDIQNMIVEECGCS
In words: Biacore SPR. The method, then:
as §1

The target in another assay is T7, GDF3 (UniProt Q9NR23 251-364).
T7 sequence (looked up): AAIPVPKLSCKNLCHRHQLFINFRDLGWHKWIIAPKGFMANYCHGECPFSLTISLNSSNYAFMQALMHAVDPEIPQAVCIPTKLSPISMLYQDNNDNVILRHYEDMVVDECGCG
In words: Biacore SPR. The method, then:
as §1

The target of the assay “GDF6” is B3. In words: Biacore SPR. The method, then: as §1
A further assay deals with T8, BMP6 (UniProt P22004 382-513, limits assumed).
T8 sequence (looked up): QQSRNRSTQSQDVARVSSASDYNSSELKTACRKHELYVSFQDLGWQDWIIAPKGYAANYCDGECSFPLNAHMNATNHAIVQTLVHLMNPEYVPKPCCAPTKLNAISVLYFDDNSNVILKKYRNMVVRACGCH
In words: Biacore SPR. On the procedure: as §1

In the next assay the target is T9, GDF8 (UniProt O14793 267-375).
T9 construct: also called myostatin
T9 sequence (looked up): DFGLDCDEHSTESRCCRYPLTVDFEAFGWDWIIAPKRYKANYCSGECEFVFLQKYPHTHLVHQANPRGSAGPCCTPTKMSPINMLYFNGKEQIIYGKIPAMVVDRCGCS
In words: Biacore SPR. On the procedure: as §1

The next assay has as its target T10, BMP4 (UniProt P12644 293-408).
T10 sequence (looked up): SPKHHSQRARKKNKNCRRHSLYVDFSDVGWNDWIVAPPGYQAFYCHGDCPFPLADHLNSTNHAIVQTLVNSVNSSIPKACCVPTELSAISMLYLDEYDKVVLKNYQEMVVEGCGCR
In words: Biacore SPR. On the procedure: as §1

The target in a further assay is T11, BMP7 (UniProt P18075 293-431).
T11 sequence (looked up): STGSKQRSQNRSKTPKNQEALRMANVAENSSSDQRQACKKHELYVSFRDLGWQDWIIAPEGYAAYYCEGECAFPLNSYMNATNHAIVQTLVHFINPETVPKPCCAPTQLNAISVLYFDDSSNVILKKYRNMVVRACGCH
In words: Biacore SPR. The method, then: as §1

The assay “BMP2” deals with B2. In words: Biacore SPR. The method, then: as §1
The target of a further assay is T12, BMP5 (UniProt P22003 317-454, limits assumed).
T12 sequence (looked up): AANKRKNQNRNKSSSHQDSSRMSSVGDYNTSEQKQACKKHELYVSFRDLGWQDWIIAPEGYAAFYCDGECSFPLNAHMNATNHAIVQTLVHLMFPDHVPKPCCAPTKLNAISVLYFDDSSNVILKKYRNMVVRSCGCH
In words: Biacore SPR. On the procedure: as §1

The target of a further assay is T13, BMP9 (UniProt Q9UK05 320-429).
T13 construct: also called GDF2
T13 sequence (looked up): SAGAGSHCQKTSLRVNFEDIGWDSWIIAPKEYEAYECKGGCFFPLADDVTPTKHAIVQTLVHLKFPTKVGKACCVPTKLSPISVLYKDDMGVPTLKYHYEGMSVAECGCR
In words: Biacore SPR; kinetics indeterminate (transient). On the procedure: as §1

The next assay deals with T14, BMPRII-Fc homodimer (UniProt Q13873 27-150).
T14 construct: extracellular domain
T14 sequence (looked up): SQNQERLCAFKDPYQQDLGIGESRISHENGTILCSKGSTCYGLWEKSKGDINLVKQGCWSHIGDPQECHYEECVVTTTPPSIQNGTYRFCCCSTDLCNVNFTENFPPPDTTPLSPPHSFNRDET
In words: Biacore SPR; kinetics indeterminate (transient).

For assay [1], the target named is T15, ALK3-Fc homodimer (UniProt P36894 24-152).
T15 construct: extracellular domain
In words: Biacore SPR. The method, then:
as §1

The target of assay [2] is T15, ALK3-Fc homodimer. In words: Biacore SPR. On the procedure:
as §1
The source holds these as a separate data set.

The term Kd denotes the free concentration of one partner at which half of the binding sites on the other are occupied at equilibrium, for simple one-to-one binding. The low end stands for tighter binding, the high end for weaker binding. The koff is the first-order rate constant of dissociation. A high value points to a short-lived complex. By kon is commonly meant the rate constant with which the complex forms. A higher kon goes with fast association.

Like-named read-outs stand apart in the source and are kept apart here.

In the case of B1, the dissociation constant (Kd) came to 0.2 nM with activin B; 0.066 nM with GDF11; 0.031 nM with BMP10; 0.052 nM with GDF7; 0.07 nM with GDF5; 0.15 nM with activin A. Moreover, the dissociation constant (Kd) with GDF3 is 5.9 nM; in the assay with GDF6, 1.6 nM; in the assay with BMP6, 0.015 nM; with GDF8 it was 0.31 nM; in the assay with BMP4 it was 0.003 nM; in the assay with BMP7 it was 1.9 nM. For the same molecule, the Kd with BMP2 is 0.001 nM; with BMP5, 0.64 nM; with BMP9 it was > 33 nM. Also, the koff in the assay with activin B was found to be 0.00057 s⁻¹; with GDF11, 0.0011 s⁻¹; in the assay with BMP10 it was 0.00094 s⁻¹; in the assay with GDF7, 0.0004 s⁻¹; with GDF5, 0.00083 s⁻¹; with activin A it was 0.005 s⁻¹. For the same molecule, the koff in the assay with GDF3 is 0.082 s⁻¹; in the assay with GDF6, 0.00045 s⁻¹; with BMP6, 0.00029 s⁻¹; with GDF8, 0.00092 s⁻¹; with BMP4, 6.5e-06 s⁻¹; with BMP7, 0.0015 s⁻¹. Besides, the koff in the assay with BMP2 stood at 1.1e-05 s⁻¹; with BMP5, 0.00058 s⁻¹. Further, the kon in the assay with activin B was found to be 2.8e+06 M⁻¹ s⁻¹; in the assay with GDF11 it was 1.6e+07 M⁻¹ s⁻¹; with BMP10, 3e+07 M⁻¹ s⁻¹; with GDF7 it was 7.5e+06 M⁻¹ s⁻¹; in the assay with GDF5 it was 1.2e+07 M⁻¹ s⁻¹; with activin A, 3.4e+07 M⁻¹ s⁻¹. In addition, the kon is 1.4e+07 M⁻¹ s⁻¹ with GDF3; 280000 M⁻¹ s⁻¹ with GDF6; 2e+07 M⁻¹ s⁻¹ with BMP6; 3e+06 M⁻¹ s⁻¹ with GDF8; 2.6e+06 M⁻¹ s⁻¹ in the assay with BMP4; 820000 M⁻¹ s⁻¹ with BMP7. Further, the on-rate (kon) with BMP2 stood at 8e+06 M⁻¹ s⁻¹; in the assay with BMP5 it was 900000 M⁻¹ s⁻¹.
For B2, in the assay with BMPRII-Fc homodimer, the Kd was > 2000 nM.
Consider B3, for which, in the assay with ALK3-Fc homodimer [1], the Kd is 40 nM, the koff was 0.0013 s⁻¹ and the kon is 34000 M⁻¹ s⁻¹. Further, the Kd with BMPRII-Fc homodimer was > 88 nM. For the same molecule, in the assay with ALK3-Fc homodimer [2], the Kd is 40 nM, the koff amounted to 0.0013 s⁻¹ and the on-rate (kon) turned out to be 34000 M⁻¹ s⁻¹.

For the origin of these results see patent publication US20190225669A1 (ACCELERON PHARMA, published 2019).
